Measured values reported in the supplement of paper PMC12636428.

What follows are sequences tested on Saccharomyces cerevisiae (assay: transcriptional activation domain activity (GFP:mCherry ratio, weighted mean of sorted bins, harmonized to initial dataset scale) (arbitrary fluorescence ratio units); higher = stronger transcriptional activation). Conditions: beta-estradiol 1 µM; induction time 4 h.
Outline: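 In diploid yeast carrying a GFP reporter, barcoded protein tiles fused to an estradiol-inducible synthetic transcription factor were integrated at the URA3 locus. Cultures diluted 1:5 into SC with 1 uM beta-estradiol were kept at 30 °C for 4 hours, then sorted by GFP:mCherry ratio into 8 bins before barcode sequencing. Tiles with under 50 reads were excluded. The activation activity reported here is the read-weighted mean of bin median fluorescence, averaged across barcodes and linearly rescaled to the initial dataset.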
“FFHVTVRVASQGCGLAFGIHGFENTDVFLAYLILGAEGYFTLVLCTFRFLVSW” was tested, and the “transcriptional activation domain activity” value was 66200.
“LLLALLIADCGHLVSMRGLGVQVYWNIWEWNVFTAASVLLVYFYITLRICFLF” was tested, and the “transcriptional activation domain activity” value was 53300.
With “AGSGGEGADGNETRRRSSGRGRGRGRGRGGRASRGGRGGKSEGAEGFTEKAEG” the “transcriptional activation domain activity” value was 15900.
“FVYELWRHGGLGVYSFRLTELLVKVVLEAECKEIMDWWLEKQGYILHDLHRKA” was tested, and the “transcriptional activation domain activity” value was 50300.
“YFLLSILFFFFSNNFTFTLLYLLHASYHIQSLYRHILVSVFCNYPSLLLFFFL” was tested, and the “transcriptional activation domain activity” value was 53000.
In the case of “MLLLLYLILYLMMMLFAVCALISIYLCIYTLPLLSFPFFLALFYFILFLYVYL”, the “transcriptional activation domain activity” value is reported as 45200.
In the case of “EKSEGANGEAGGEGSRRRASGRGRLRGRGRNGRGGRGGRAGETTDDKKEGEAT”, the “transcriptional activation domain activity” value is reported as 26100.
With “IGFVDFPFSSCSFLLGYFCYSVFLCFPFLFLVFFGVIYMWSSRGFLVQSFTMI” the “transcriptional activation domain activity” value was 70800.
For “GLEFVEPWTELIEQRYMQCGDGDNNNFENLYNLFVNSNNINNDINNSRPITRK”, the “transcriptional activation domain activity” value was 81200.
With “MTWFTATLTVLYHLTHPIITIFRWLLLPLTPFYHLFSYIFSTLFLLPSLYIYF” the “transcriptional activation domain activity” value was 53100.
For “EREVRDEERTRRNREKRNRKKGKGGKGGKEDGGAGGGGGGGNVKARVGMVGDG”, the “transcriptional activation domain activity” value was 15100.
In the case of “KSKAANAKGKKKGKKGKKNKKGKKGKKAKNAKKAKAVKVAKAPVAKAPAPAAK”, the “transcriptional activation domain activity” value is reported as 17700.
“PAEATVAITNVLYVVQKYYPGSHNLITLLLAIRCVMFTVFRFVAAPLCVTHAL” was tested, and the “transcriptional activation domain activity” value was 46700.
“LPLYILSLLCCFFIIAMFWKVTIPFFLIFPSFFMLSCFHLYFSFSPSRWCILN” was tested, and the “transcriptional activation domain activity” value was 38600.
“FISKLCILGGSQICNHFWGGIEIILESFYFILTTLINFWDFINLPNAFLWGLF” was tested, and the “transcriptional activation domain activity” value was 72800.
For “TKFYPNKSIETQLMKNKYCDVVHLTRYAAWSNNKKDQDTSSQPLIDEIFGLYS”, the “transcriptional activation domain activity” value was 61500.
With “DGSNGIAQLFGVVFFLFFFLHIYYICWALGLVGFVSGRRGNIVWFVLLCLFLS” the “transcriptional activation domain activity” value was 63800.
With “GEAGAEGEAAAAEGEGAAEEGASGEGAEGEEAAAEEGEGAEEEGGEDLQALAT” the “transcriptional activation domain activity” value was < 6570.
With “KVISLLYSNRESSYLEDTCPTENDYSDLLKGYINEIEKTLPPKAIIEQYLSHF” the “transcriptional activation domain activity” value was 51100.
With “LPSSLLFLLPHLFPTLPLLPSIPLLTPSSSSLFFHLICLYCPPFAFWAWFWFW” the “transcriptional activation domain activity” value was 55900.
With “RSKVLRPFWLFLLALCYNLVHATALFYQVITLNVAVNSYSNALLTLLMSNQFV” the “transcriptional activation domain activity” value was 53500.
“KRGEGEAGKESGRQRRSGSAGERAGRRGEGSKEGAEGESEASREKGNKRNDEE” was tested, and the “transcriptional activation domain activity” value was 32800.
“MHCSLPSGLSFGCQYALVHLLFVRRISIWGLLILQIFLGTRVFYHVFILRVVR” was tested, and the “transcriptional activation domain activity” value was 62700.
In the case of “FRYLSYSKWLILALYINSWAYVVLSMLLVYVVSASRKGRWRSASYRFHMILLS”, the “transcriptional activation domain activity” value is reported as 64100.
In the case of “MQTSLLPLFSFLSFLFLLVFLLLLSLYLAFSHVAFSFLSLFFCYISFFLFYSF”, the “transcriptional activation domain activity” value is reported as 26200.
For “MSSDDDSAPRTKRGGKPTTKKQQKRAIARACDRCRQKKVKCDGASLAIGAVCQ”, the “transcriptional activation domain activity” value was 40600.
In the case of “LGLDSGYLWSGILYNVSVTVSLYSLGMFWVCMSKDLQPFRPVPKFLCIKLIIF”, the “transcriptional activation domain activity” value is reported as 62400.
With “KTHPQASAEADGEEDAEPEGQAKSRQPSRRRQSRGRGRRGGPQESDTESIARS” the “transcriptional activation domain activity” value was 19300.
With “WDDILTPADNQHRPSLTNQFLSPRSNYDGTTRSSGIDSNYSDTESNYHTPYLY” the “transcriptional activation domain activity” value was 61600.
With “RDVFLGILHRNWFNRVWILQEVASARAAVVFCGRNSISTRIFTRLPLLFDITP” the “transcriptional activation domain activity” value was 68000.
For “MIIASLVPGGGIGFFYFVFWSLLWLRLFLAFLSIMGSFLCLFTCYMPSFLFFS”, the “transcriptional activation domain activity” value was 33400.
“KSWYFPSLSFFFFSFLFSFLSFAFLSFFLFFSFPFSLLLLYLFLLGLALTADG” was tested, and the “transcriptional activation domain activity” value was 15600.
With “EAAAGSVKNEAGESSASSAARGGRGGRRGGGGPGSRGGKVGRGRGGRAGASQE” the “transcriptional activation domain activity” value was 32500.
In the case of “MSDDLGASPTQRPLRKSHRKSRKGCLDCRRRRVKCGEERPSCLVCVRRNVRCE”, the “transcriptional activation domain activity” value is reported as 49200.
For “EVIAGQQYAGLSFFAFVLRQDDIKSLDLILAEYFKVPTALDIIRSSLYLAIYS”, the “transcriptional activation domain activity” value was 48600.
“RIESHLSEREYKLQTFAEFLRVPDNGSLDIESLDSSLIENTLNSHDVTNQALD” was tested, and the “transcriptional activation domain activity” value was 26700.
“MSETNAPAASAPDALAEGIAKLDVGAEGAQASEAAAPQANGAGEAAPAAAEAS” was tested, and the “transcriptional activation domain activity” value was 23400.
With “VRSTRRSLYFWSCLTCSWGIIIHLLFILLLNFKIFENYGALVVVHFTWCIYVV” the “transcriptional activation domain activity” value was 63300.
With “MAVNDGFLFVFSCLFFLIFVTLLLTFPFLFFGSSHFHMGNPPVFPLLILISCY” the “transcriptional activation domain activity” value was 47200.
In the case of “MIPSVMIRTSDYSLVIILSLCLVLKMMLICIVCSIESYLTNLDKWLFCLILCK”, the “transcriptional activation domain activity” value is reported as 51300.
For “SDASEGSKGRAREDPSDRAVVEYQGLSRFSSIPEKEKVWAYVVKIVKLLATTK”, the “transcriptional activation domain activity” value was 34600.
